± gives the standard deviation of the averaged measurements.
How the values were obtained:
[1] = terephthalic acid (TPA) released, HPLC; higher = more TPA released; extreme values may be limits of the assay; settings: 24 h
Protocol: (§1)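 Purified PET hydrolases, 2.5 ug enzyme on 3.5 mg amorphous PET film (aFilm) or crystalline PET powder (cryPow) in 0.5 mL of 50 mM buffer (NaCitrate pH 4.5/5.5, NaPhosphate 6.5/7.5, glycine 8.5/9.5) at 60 or 70 C with shaking for 24 h. Total aromatic product by UV-Vis (260/280 nm, blank-subtracted, normalised per mg enzyme) and individual TPA, MHET, BHET concentrations by UHPLC-DAD at 240 nm; duplicate reactions.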

[2] = MHET released, HPLC; higher = more MHET released; extreme values may be limits of the assay; settings: 24 h
Protocol: as §1

[3] = BHET released, HPLC; higher = more BHET released; extreme values may be limits of the assay; settings: 24 h
Protocol: as §1

[4] = PET hydrolysis product formed (TPA+MHET+BHET, UV-Vis) per mg enzyme (mmol/mg enzyme); higher = more PET depolymerisation activity; extreme values may be limits of the assay; settings: 2 h
Protocol: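 Purified PET hydrolases (His-SUMO cleaved, E. coli C41(DE3) small-scale expression), 2.5 ug enzyme on 3.5 mg amorphous PET film (aFilm) or crystalline PET powder (cryPow) in 0.5 mL of 50 mM buffer (NaCitrate pH 4.5/5.5, NaPhosphate 6.5/7.5, glycine 8.5/9.5) at 60 or 70 C with shaking for 2 h. Soluble aromatic products (TPA+MHET+BHET) were quantified by UV-Vis at 260/280 nm, blank-subtracted against the no-enzyme control, and normalised per mg enzyme; duplicate reactions.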

[5] = PET substrate: aFilm, 60 °C, pH 4.5
[6] = PET substrate: aFilm, 60 °C, pH 5.5
[7] = PET substrate: aFilm, 60 °C, pH 6.5
[8] = PET substrate: aFilm, 60 °C, pH 7.5
[9] = PET substrate: aFilm, 60 °C, pH 8.5
[10] = PET substrate: aFilm, 60 °C, pH 9.5
[11] = PET substrate: aFilm, 70 °C, pH 4.5
[12] = PET substrate: aFilm, 70 °C, pH 5.5
[13] = PET substrate: aFilm, 70 °C, pH 6.5
[14] = PET substrate: aFilm, 70 °C, pH 7.5
[15] = PET substrate: aFilm, 70 °C, pH 8.5
[16] = PET substrate: aFilm, 70 °C, pH 9.5
[17] = PET substrate: cryPow, 60 °C, pH 4.5
[18] = PET substrate: cryPow, 60 °C, pH 5.5
[19] = PET substrate: cryPow, 60 °C, pH 6.5
[20] = PET substrate: cryPow, 60 °C, pH 7.5
[21] = PET substrate: cryPow, 60 °C, pH 8.5
[22] = PET substrate: cryPow, 60 °C, pH 9.5
[23] = PET substrate: cryPow, 70 °C, pH 4.5
[24] = PET substrate: cryPow, 70 °C, pH 5.5
[25] = PET substrate: cryPow, 70 °C, pH 6.5
[26] = PET substrate: cryPow, 70 °C, pH 7.5
[27] = PET substrate: cryPow, 70 °C, pH 8.5
[28] = PET substrate: cryPow, 70 °C, pH 9.5

QTNPYARGPNPTAASLEASAGPFTVRSFTVSRPSGYGAGTVYYPTNAGGTVGAIAIVPGYTARQSSIKWWGPRLASHGFVVITIDTNSTFDYPSSRSSQQMAALRQVASLNGDSSSPIYGKVDTARMGVMGHSMGGGASLRSAANNPSLKAAIPQAPWDSQTNFSSVTVPTLIFACENDSIAPVNSHALPIYDSMSRNAKQFLEINGGSHSCANSGNSNQALIGKKGVAWMKRFMDNDTRYSTFACENPNSTAVSDFRTANCS [DuraPETase]
terephthalic acid [1, 5]: 0.00462 ± 0.0065 mM | terephthalic acid [1, 6]: 0 mM | terephthalic acid [1, 7]: 0 mM | terephthalic acid [1, 8]: 0.102 ± 0.0056 mM | terephthalic acid [1, 9]: 0.0886 ± 0.028 mM | terephthalic acid [1, 10]: 0.344 ± 0.23 mM | terephthalic acid [1, 11]: 0 mM | terephthalic acid [1, 12]: 0 mM | terephthalic acid [1, 13]: 0 mM | terephthalic acid [1, 14]: 0.0128 ± 0.0049 mM | terephthalic acid [1, 15]: 0.0158 ± 0.0083 mM | terephthalic acid [1, 16]: 0.0892 ± 0.011 mM | terephthalic acid [1, 17]: 0 mM | terephthalic acid [1, 18]: 0 mM | terephthalic acid [1, 19]: 0.00832 ± 0.0013 mM | terephthalic acid [1, 20]: 0.0835 ± 0.0026 mM | terephthalic acid [1, 21]: 0.0926 ± 0.0049 mM | terephthalic acid [1, 22]: 0.384 ± 0.049 mM | terephthalic acid [1, 23]: 0 mM | terephthalic acid [1, 24]: 0 mM | terephthalic acid [1, 25]: 0 mM | terephthalic acid [1, 26]: 0.12 ± 0.03 mM | terephthalic acid [1, 27]: 0.0557 ± 0.011 mM | terephthalic acid [1, 28]: 0.0155 ± 0.005 mM | MHET released [2, 5]: 0 mM | MHET released [2, 6]: 0 mM | MHET released [2, 7]: 0 mM | MHET released [2, 8]: 0.182 ± 0.01 mM | MHET released [2, 9]: 0.099 ± 0.031 mM | MHET released [2, 10]: 0.152 ± 0.11 mM | MHET released [2, 11]: 0 mM | MHET released [2, 12]: 0 mM | MHET released [2, 13]: 0 mM | MHET released [2, 14]: 0.00907 ± 0.0052 mM | MHET released [2, 15]: 0.00981 ± 0.0052 mM | MHET released [2, 16]: 0 mM | MHET released [2, 17]: 0 mM | MHET released [2, 18]: 0 mM | MHET released [2, 19]: 0.0436 ± 0.008 mM | MHET released [2, 20]: 0.21 ± 0.0064 mM | MHET released [2, 21]: 0.169 ± 0.011 mM | MHET released [2, 22]: 0.123 ± 0.027 mM | MHET released [2, 23]: 0 mM | MHET released [2, 24]: 0 mM | MHET released [2, 25]: 0.0107 ± 0.0024 mM | MHET released [2, 26]: 0.0884 ± 0.021 mM | MHET released [2, 27]: 0.0546 ± 0.011 mM | MHET released [2, 28]: 0 mM | BHET released [3, 5]: 0 mM | BHET released [3, 6]: 0 mM | BHET released [3, 7]: 0 mM | BHET released [3, 8]: 0.0050186 ± 1.4e-07 mM | BHET released [3, 9]: 0 mM | BHET released [3, 10]: 0 mM | BHET released [3, 11]: 0 mM | BHET released [3, 12]: 0 mM | BHET released [3, 13]: 0 mM | BHET released [3, 14]: 0 mM | BHET released [3, 15]: 0 mM | BHET released [3, 16]: 0 mM | BHET released [3, 17]: 0 mM | BHET released [3, 18]: 0 mM | BHET released [3, 19]: 0 mM | BHET released [3, 20]: 0.00475 ± 0.00038 mM | BHET released [3, 21]: 0 mM | BHET released [3, 22]: 0 mM | BHET released [3, 23]: 0 mM | BHET released [3, 24]: 0 mM | BHET released [3, 25]: 0 mM | BHET released [3, 26]: 0 mM | BHET released [3, 27]: 0 mM | BHET released [3, 28]: 0 mM | PET hydrolysis product formed [4, 5]: 0 | PET hydrolysis product formed [4, 6]: 0 | PET hydrolysis product formed [4, 7]: 0 | PET hydrolysis product formed [4, 8]: 0 | PET hydrolysis product formed [4, 9]: 0 | PET hydrolysis product formed [4, 10]: 0.0223 ± 0.0018 | PET hydrolysis product formed [4, 11]: 0 | PET hydrolysis product formed [4, 12]: 0 | PET hydrolysis product formed [4, 13]: 0 | PET hydrolysis product formed [4, 14]: 0 | PET hydrolysis product formed [4, 15]: 0 | PET hydrolysis product formed [4, 16]: 0.0191 ± 0.00099 | PET hydrolysis product formed [4, 17]: 0 | PET hydrolysis product formed [4, 18]: 0 | PET hydrolysis product formed [4, 19]: 0 | PET hydrolysis product formed [4, 20]: 0.0496 | PET hydrolysis product formed [4, 21]: 0.032 ± 0.001 | PET hydrolysis product formed [4, 22]: 0.0701 ± 0.00082 | PET hydrolysis product formed [4, 23]: 0 | PET hydrolysis product formed [4, 24]: 0 | PET hydrolysis product formed [4, 25]: 0 | PET hydrolysis product formed [4, 26]: 0.0447 ± 0.0013 | PET hydrolysis product formed [4, 27]: 0.0151 ± 0.005 | PET hydrolysis product formed [4, 28]: 0.0191 ± 0.027
